# Patent US20260125451A1
# B1: B637302 (protein)
# heavy: EVQLVQSGAEVKKPGESLKISCKGSGYIFTNYWIAWVRQMPGKGLESMGIIYPGDSDIRYSPSFQGQVTISADKSITTAYLQWSSLKASDTAMYYCARHDIEGFDYWGRGTLVTVSSASTKGPSVFPLAPSSKSTSGGTAALGCLVKDYFPEPVTVSWNSGALTSGVHTFPAVLQSSGLYSLSSVVTVPSSSLGTQTYICNVNHKPSNTKVDKRVEPKSCDKTHTCPPCPAPEFEGGPSVFLFPPKPKDTLMISRTPEVTCVVVDVSHEDPEVKFNWYVDGVEVHNAKTKPREEQYNSTYRVVSVLTVLHQDWLNGKEYKCKVSNKALPASIEKTISKAKGQPREPQVYTLPPSRDELTKNQVSLTCLVKGFYPSDIAVEWESNGQPENNYKTTPPVLDSDGSFFLYSKLTVDKSRWQQGNVFSCSVMHEALHNHYTQKSLSLSPGK
# light: EIVLTQSPGTLSLSPGERATLSCRASQSVSSSFFAWYQQKPGQAPRLLIYGASSRATGIPDRLSGSGSGTDFTLTITRLEPEDFAVYYCQQYDSSAITFGQGTRLEIKRTVAAPSVFIFPPSDEQLKSGTASVVCLLNNFYPREAKVQWKVDNALQSGNSQESVTEQDSKDSTYSLSSTLTLSKADYEKHKVYACEVTHQGLSSPVTKSFNRGECGGGGSGGGGSMLQMAGQCSQNEYFDSLLHACIPCQLRCSSNTPPLTCQRYCSTSCREEQGEFYDHLLRDCISCASICGQHPKQCAAFCE
# B2: B606401 (protein)
# heavy: B1 heavy
# light: EIVLTQSPGTLSLSPGERATLSCRASQSVSSSFFAWYQQKPGQAPRLLIYGASSRATGIPDRLSGSGSGTDFTLTITRLEPEDFAVYYCQQYDSSAITFGQGTRLEIKRTVAAPSVFIFPPSDEQLKSGTASVVCLLNNFYPREAKVQWKVDNALQSGNSQESVTEQDSKDSTYSLSSTLTLSKADYEKHKVYACEVTHQGLSSPVTKSFNRGECGGGGSGGGGSSTSCREEQGEFYDHLLRDCISCASICGQHPKQCAAFCE
# B3: Telitacicept (RCT-18) (Fc fusion)
# chain: SRVDQEERFPQGLWTGVAMRSCPEEQYWDPLLGTCMSCKTICNHQSQRTCAAFCRSLSCRKEQGKFYDHLLRDCISCASICGQHPKQCAYFCENKLRSPVNLPPELDKTHTCPPCPAPEAEGAPSVFLFPPKPKDTLMISRTPEVTCVVVDVSHEDPEVKFNWYVDGVEVHNAKTKPREEQYNSTYRVVSVLTVLHQDWLNGKEYKCKVSNKALPSSIEKTISKAKGQPREPQVYTLPPSRDELTKNQVSLTCLVKGFYPSDIAVEWESNGQPENNYKTTPPVLDSDGSFFLYSKLTVDKSRWQQGNVFSCSVMHEALHNHYTQKSLSLSPGK
# B4: B746201 (protein)
# heavy: EVQLVQSGAEVKKPGESLKISCKGSGYIFTNYWIAWVRQMPGKGLESMGIIYPGDSDIRYSPSFQGQVTISADKSITTAYLQWSSLKASDTAMYYCARHDIEGFDYWGRGTLVTVSSASTKGPSVFPLAPSSKSTSGGTAALGCLVKDYFPEPVTVSWNSGALTSGVHTFPAVLQSSGLYSLSSVVTVPSSSLGTQTYICNVNHKPSNTKVDKRVEPKSCDKTHTCPPCPAPEFEGGPSVFLFPPKPKDTLMISRTPEVTCVVVDVSHEDPEVKFNWYVDGVEVHNAKTKPREEQYNSTYRVVSVLTVLHQDWLNGKEYKCKVSNKALPASIEKTISKAKGQPREPQVYTLPPSRDELTKNQVSLTCLVKGFYPSDIAVEWESNGQPENNYKTTPPVLDSDGSFFLYSKLTVDKSRWQQGNVFSCSVMHEALHNHYTQKSLSLSPGKGGGGSGGGGSGGGGSMLQMAGQCSQNEYFDSLLHACIPCQLRCSSNTPPLTCQRYCSTSCREEQGEFYDHLLRDCISCASICGQHPKQCAAFCE
# light: EIVLTQSPGTLSLSPGERATLSCRASQSVSSSFFAWYQQKPGQAPRLLIYGASSRATGIPDRLSGSGSGTDFTLTITRLEPEDFAVYYCQQYDSSAITFGQGTRLEIKRTVAAPSVFIFPPSDEQLKSGTASVVCLLNNFYPREAKVQWKVDNALQSGNSQESVTEQDSKDSTYSLSSTLTLSKADYEKHKVYACEVTHQGLSSPVTKSFNRGEC
# B5: B805201 (protein)
# heavy: EVQLVQSGAEVKKPGESLKISCKGSGYIFTNYWIAWVRQMPGKGLESMGIIYPGDSDIRYSPSFQGQVTISADKSITTAYLQWSSLKASDTAMYYCARHDIEGFDYWGRGTLVTVSSASTKGPSVFPLAPSSKSTSGGTAALGCLVKDYFPEPVTVSWNSGALTSGVHTFPAVLQSSGLYSLSSVVTVPSSSLGTQTYICNVNHKPSNTKVDKRVEPKSCDKTHTCPPCPAPEFEGGPSVFLFPPKPKDTLMISRTPEVTCVVVDVSHEDPEVKFNWYVDGVEVHNAKTKPREEQYNSTYRVVSVLTVLHQDWLNGKEYKCKVSNKALPASIEKTISKAKGQPREPQVYTLPPSRDELTKNQVSLTCLVKGFYPSDIAVEWESNGQPENNYKTTPPVLDSDGSFFLYSKLTVDKSRWQQGNVFSCSVMHEALHNHYTQKSLSLSPGKGGGGSGGGGSGGGGSSTSCREEQGEFYDHLLRDCISCASICGQHPKQCAAFCE
# light: B4 light
# Molecular target: BAFF and ARPIL
# Experiment: cell-based or functional assay
"CD27+ CD38+ plasma cell count, mean, BAFF + APRIL-induced, drug at 10 nM [count]","CD27+ CD38+ plasma cell count, mean, BAFF + APRIL-induced, drug at 100 nM [count]","CD27+ CD38+ plasma cell count, mean, BAFF + APRIL-induced, drug at 1000 nM [count]",Binder
563,482,137,B1
654,549,426,B2
2450,510,230,B3
575,520,410,B4
434,426,438,B5
